Experimental findings from US20160355586A1 (published 2016) are described below.

Positions count from the first letter of the chain named.

For this experiment, the target named is T1, CD16A (human, UniProt P08637 17-208, limits assumed).
T1 construct: Target of the hu3G8 VH/VL variant screen of section 5.1.2; also called FcγRIIIA
The experiment can be described thus: tetrameric IgG1 with hu3G8VL-1 light chain; binding to CD16A, method not named.

T1 sequence (P08637 17-208 limits assumed): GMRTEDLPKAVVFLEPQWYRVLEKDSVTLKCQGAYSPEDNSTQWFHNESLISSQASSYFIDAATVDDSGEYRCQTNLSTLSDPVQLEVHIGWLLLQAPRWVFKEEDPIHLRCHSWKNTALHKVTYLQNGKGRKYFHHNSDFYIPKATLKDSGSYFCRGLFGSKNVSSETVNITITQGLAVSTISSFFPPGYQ

B1: tetrameric antibody hu3G8VH-1 / hu3G8VL-1 (antibody, IgG1, V domains shown)
VH: QVTLRESGPALVKPTQTLTLTCTFSGFSLSTSGMGVGWIRQPPGKALEWLAHIWWDDDKRYNPALKSRLTISKDTSKNQVVLTMTNMDPVDTATYYCARINPAWFAYWGQGTLVTVSS
VL: DIVMTQSPDSLAVSLGERATINCKASQSVDFDGDSFMNWYQQKPGQPPKLLIYTTSNLESGVPDRFSGSGSGTDFTLTISSLQAEDVAVYYCQQSNEDPYTFGQGTKLEIK
notes: VH on human Cgamma1 constant region (IgG1)
Consider B1, for which the binding result is on record as “binds”.

B2: tetrameric antibody hu3G8VH-22 / hu3G8VL-1 (antibody, IgG1, V domains shown)
VH: QVTLRESGPALVKPTQTLTLTCTFSGFSLSTSGVGVGWIRQPPGKALEWLAHIWWDDDKRYSPSLKSRLTISKDTSKNQVVLTMTNMDPVDTATYYCARINPAYFAYWGQGTLVTVS
VL: B1 VL
notes: VH on human Cgamma1 (IgG1)
Regarding B2, the binding result is recorded as “binds”.

B3: tetrameric antibody hu3G8VH-5 / hu3G8VL-1 (antibody, IgG1, V domains shown)
VH: B1 VH with R99Q
VL: B1 VL
notes: VH on human Cgamma1 (IgG1)
On to B3, for which the binding result is “binds”.
